Measurements taken from PMC5456377, “Megalin dependent urinary cystatin C excretion in ischemic kidney injury in rats” (PLoS ONE, 2017).

What was measured:
rat megalin = target: T1, rat megalin (rat, UniProt P98158 26-4660); experiment: SPR; rat megalin or cubilin immobilised; human cysC flowed at 20-500 nM (7 concentrations); CaHBS: 10 mM HEPES, 150 mM NaCl, 1.5 mM CaCl2, 1 mM EGTA, pH 7.4; Biacore 3000; Langmuir 1:1 model, global fit; conditions: both partners purified
T1 construct: megalin, rat, purified and immobilised on the SPR chip; probably the native receptor purified from rat kidney (surmised)

rat cubilin = target: T2, rat cubilin (rat, UniProt O70244 33-3623); experiment: as above; conditions: both partners purified
T2 construct: cubilin, rat, purified and immobilised on the SPR chip; probably the native receptor purified from rat kidney (surmised)
T2 sequence (O70244 33-3623): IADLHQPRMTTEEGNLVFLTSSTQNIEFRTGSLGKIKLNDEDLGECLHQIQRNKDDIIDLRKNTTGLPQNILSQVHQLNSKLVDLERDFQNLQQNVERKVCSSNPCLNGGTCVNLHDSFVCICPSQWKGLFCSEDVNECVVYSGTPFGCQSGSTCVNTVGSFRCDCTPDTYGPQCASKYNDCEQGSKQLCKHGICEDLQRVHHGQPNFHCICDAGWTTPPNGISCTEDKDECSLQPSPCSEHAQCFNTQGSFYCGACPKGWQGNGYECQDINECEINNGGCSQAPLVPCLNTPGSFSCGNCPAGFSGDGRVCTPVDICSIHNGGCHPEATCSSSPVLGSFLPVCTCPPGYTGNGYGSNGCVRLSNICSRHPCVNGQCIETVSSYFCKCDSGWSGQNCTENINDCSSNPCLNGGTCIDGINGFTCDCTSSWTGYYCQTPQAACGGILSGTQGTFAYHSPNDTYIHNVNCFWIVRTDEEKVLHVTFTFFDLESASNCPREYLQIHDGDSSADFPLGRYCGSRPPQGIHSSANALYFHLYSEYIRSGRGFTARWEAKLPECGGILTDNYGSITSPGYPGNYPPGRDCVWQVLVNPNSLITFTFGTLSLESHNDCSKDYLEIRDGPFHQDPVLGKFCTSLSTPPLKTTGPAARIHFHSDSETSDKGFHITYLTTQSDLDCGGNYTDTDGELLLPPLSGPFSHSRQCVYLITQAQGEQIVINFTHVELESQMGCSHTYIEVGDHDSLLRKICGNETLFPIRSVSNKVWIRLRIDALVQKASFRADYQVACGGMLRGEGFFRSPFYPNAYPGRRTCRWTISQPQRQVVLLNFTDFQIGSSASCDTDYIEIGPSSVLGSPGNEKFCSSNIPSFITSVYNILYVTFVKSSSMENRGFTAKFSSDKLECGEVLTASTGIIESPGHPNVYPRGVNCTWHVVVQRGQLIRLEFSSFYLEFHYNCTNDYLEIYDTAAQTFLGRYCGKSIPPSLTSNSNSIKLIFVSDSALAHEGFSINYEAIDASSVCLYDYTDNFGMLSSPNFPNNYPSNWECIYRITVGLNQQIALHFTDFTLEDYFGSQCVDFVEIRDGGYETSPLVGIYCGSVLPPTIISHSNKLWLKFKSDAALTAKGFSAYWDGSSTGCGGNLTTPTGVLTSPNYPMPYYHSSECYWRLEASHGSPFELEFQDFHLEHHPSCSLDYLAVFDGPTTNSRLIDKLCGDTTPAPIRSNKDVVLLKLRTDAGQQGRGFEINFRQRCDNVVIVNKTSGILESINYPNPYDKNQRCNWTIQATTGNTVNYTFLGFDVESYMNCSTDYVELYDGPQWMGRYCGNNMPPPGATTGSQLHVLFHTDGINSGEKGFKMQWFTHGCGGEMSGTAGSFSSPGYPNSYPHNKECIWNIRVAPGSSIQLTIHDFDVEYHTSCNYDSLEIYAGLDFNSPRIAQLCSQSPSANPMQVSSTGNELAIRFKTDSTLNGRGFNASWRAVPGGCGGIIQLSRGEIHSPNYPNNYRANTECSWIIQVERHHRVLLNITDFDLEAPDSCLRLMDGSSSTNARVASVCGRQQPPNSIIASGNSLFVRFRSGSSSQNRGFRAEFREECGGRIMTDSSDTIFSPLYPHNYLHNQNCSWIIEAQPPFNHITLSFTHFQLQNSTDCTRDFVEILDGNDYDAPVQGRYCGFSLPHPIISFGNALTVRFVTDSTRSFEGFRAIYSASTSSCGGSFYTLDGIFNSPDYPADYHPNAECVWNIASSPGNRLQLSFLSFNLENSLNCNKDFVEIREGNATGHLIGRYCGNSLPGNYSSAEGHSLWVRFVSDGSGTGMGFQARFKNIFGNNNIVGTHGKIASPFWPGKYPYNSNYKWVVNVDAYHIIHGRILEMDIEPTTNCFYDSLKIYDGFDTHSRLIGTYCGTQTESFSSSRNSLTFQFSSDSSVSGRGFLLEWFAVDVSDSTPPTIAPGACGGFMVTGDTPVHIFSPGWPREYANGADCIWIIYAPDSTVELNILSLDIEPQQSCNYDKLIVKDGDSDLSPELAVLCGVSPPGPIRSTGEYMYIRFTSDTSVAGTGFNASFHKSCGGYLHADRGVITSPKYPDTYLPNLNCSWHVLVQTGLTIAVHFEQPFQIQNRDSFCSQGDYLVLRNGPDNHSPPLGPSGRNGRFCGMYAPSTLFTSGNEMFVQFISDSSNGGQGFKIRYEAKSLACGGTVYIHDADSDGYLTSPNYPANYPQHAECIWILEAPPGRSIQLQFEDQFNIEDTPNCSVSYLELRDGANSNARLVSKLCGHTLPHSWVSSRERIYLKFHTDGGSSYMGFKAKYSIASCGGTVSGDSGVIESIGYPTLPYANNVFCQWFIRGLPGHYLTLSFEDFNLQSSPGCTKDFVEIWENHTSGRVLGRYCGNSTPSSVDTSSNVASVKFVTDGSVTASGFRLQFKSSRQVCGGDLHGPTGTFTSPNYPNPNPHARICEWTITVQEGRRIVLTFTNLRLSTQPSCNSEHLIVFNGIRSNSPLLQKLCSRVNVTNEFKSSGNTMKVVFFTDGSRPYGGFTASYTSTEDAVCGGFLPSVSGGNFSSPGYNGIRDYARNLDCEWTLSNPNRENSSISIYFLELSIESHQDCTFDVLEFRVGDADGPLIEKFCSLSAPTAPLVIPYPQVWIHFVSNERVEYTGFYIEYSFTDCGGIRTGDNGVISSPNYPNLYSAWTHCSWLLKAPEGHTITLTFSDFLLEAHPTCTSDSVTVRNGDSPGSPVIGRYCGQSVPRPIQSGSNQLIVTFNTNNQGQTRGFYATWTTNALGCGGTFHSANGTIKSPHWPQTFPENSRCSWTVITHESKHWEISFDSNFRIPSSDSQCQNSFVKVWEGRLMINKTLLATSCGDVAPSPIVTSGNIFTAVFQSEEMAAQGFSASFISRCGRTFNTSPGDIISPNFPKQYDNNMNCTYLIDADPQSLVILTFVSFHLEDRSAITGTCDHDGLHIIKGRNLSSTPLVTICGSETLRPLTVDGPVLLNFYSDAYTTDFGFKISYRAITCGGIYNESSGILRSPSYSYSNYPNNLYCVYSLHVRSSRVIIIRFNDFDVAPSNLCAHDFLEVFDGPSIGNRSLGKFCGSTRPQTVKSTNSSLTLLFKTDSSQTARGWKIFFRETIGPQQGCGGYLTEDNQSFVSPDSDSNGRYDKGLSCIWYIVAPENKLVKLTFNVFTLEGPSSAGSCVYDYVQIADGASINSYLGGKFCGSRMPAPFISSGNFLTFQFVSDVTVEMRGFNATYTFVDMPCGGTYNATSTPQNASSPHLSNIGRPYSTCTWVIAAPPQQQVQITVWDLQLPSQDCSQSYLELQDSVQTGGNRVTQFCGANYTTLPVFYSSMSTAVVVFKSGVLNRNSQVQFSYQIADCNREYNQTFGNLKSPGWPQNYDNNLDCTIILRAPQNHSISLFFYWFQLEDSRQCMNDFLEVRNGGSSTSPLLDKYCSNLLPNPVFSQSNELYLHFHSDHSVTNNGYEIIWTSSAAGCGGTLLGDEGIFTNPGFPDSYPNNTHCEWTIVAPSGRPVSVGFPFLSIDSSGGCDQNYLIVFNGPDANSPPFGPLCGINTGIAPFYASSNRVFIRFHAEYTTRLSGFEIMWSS

Kd (rat megalin): ~32 nM | Kd (rat cubilin): ~24 nM
B1: human cystatin C (natural protein, UniProt P01034 27-146, looked up)
chain: SSPGKPPRLVGGPMDASVEEEGVRRALDFAVGEYNKASNDMYHSRALQVVRARKQIVAGVNYFLDVELGRTTCTKTQPNLDNCPFHDQPHLKRKAFCSFQIYAVPWQGTMTLSKSTCQDA
notes: also called cysC
